# Laboratory results published in patent publication US20230174598A1 (UNIVERSITY OF FLORIDA RESEARCH FOUNDATION, published 2023).
# B1: D362K arrestin-1 (bovine, His(6)-tagged charge-reversal mutant) (other)
# chain: MHHHHHHKANKPAPNHVIFKKISRDKSVTIYLGKRDYIDHVERVEPVDGVVLVDPELVKGKRVYVSLTCAFRYGQEDIDVMGLSFRRDLYFSQVQVFPPVGASGATTRLQESLIKKLGANTYPFLLTFPDYLPCSVMLQPAPQDVGKSCGVDFEIKAFATHSTDVEEDKIPKKSSVRLLIRKVQHAPRDMGPQPRAEASWQFFMSDKPLRLAVSLSKEIYYHGEPIPVTVAVTNSTEKTVKKIKVLVEQVTNVVLYSSDYYIKTVAAEEAQEKVPPNSSLTKTLTLVPLLANNRERRGIALDGKIKHEDTNLASSTIIKEGIDKTVMGILVSYQIKVKLTVSGLLGELTSSEVATEVPFRLMHPQPEKPDTAKESFQDENFVFEEFARQNLKDAGEYKEEKTDQEAAMDE
# B2: R29E arrestin-1 (bovine, His(6)-tagged charge-reversal mutant) (other)
# chain: MHHHHHHKANKPAPNHVIFKKISRDKSVTIYLGKEDYIDHVERVEPVDGVVLVDPELVKGKRVYVSLTCAFRYGQEDIDVMGLSFRRDLYFSQVQVFPPVGASGATTRLQESLIKKLGANTYPFLLTFPDYLPCSVMLQPAPQDVGKSCGVDFEIKAFATHSTDVEEDKIPKKSSVRLLIRKVQHAPRDMGPQPRAEASWQFFMSDKPLRLAVSLSKEIYYHGEPIPVTVAVTNSTEKTVKKIKVLVEQVTNVVLYSSDYYIKTVAAEEAQEKVPPNSSLTKTLTLVPLLANNRERRGIALDGKIKHEDTNLASSTIIKEGIDKTVMGILVSYQIKVKLTVSGLLGELTSSEVATEVPFRLMHPQPEDPDTAKESFQDENFVFEEFARQNLKDAGEYKEEKTDQEAAMDE
# B3: H10C arrestin-1 (bovine, His(6), C63A/C143A) labeled with monobromobimane (other)
# chain: MHHHHHHKANKPAPNCVIFKKISRDKSVTIYLGKRDYIDHVERVEPVDGVVLVDPELVKGKRVYVSLTAAFRYGQEDIDVMGLSFRRDLYFSQVQVFPPVGASGATTRLQESLIKKLGANTYPFLLTFPDYLPCSVMLQPAPQDVGKSAGVDFEIKAFATHSTDVEEDKIPKKSSVRLLIRKVQHAPRDMGPQPRAEASWQFFMSDKPLRLAVSLSKEIYYHGEPIPVTVAVTNSTEKTVKKIKVLVEQVTNVVLYSSDYYIKTVAAEEAQEKVPPNSSLTKTLTLVPLLANNRERRGIALDGKIKHEDTNLASSTIIKEGIDKTVMGILVSYQIKVKLTVSGLLGELTSSEVATEVPFRLMHPQPEDPDTAKESFQDENFVFEEFARQNLKDAGEYKEEKTDQEAAMDE
# modifications: monobromobimane (mBBr) on Cys 10
# notes: Cysteine-substitution mutant, made in Pichia pastoris; also called H10C-mBBr
# B4: E361K arrestin-1 (bovine, His(6)-tagged charge-reversal mutant) (other)
# chain: MHHHHHHKANKPAPNHVIFKKISRDKSVTIYLGKRDYIDHVERVEPVDGVVLVDPELVKGKRVYVSLTCAFRYGQEDIDVMGLSFRRDLYFSQVQVFPPVGASGATTRLQESLIKKLGANTYPFLLTFPDYLPCSVMLQPAPQDVGKSCGVDFEIKAFATHSTDVEEDKIPKKSSVRLLIRKVQHAPRDMGPQPRAEASWQFFMSDKPLRLAVSLSKEIYYHGEPIPVTVAVTNSTEKTVKKIKVLVEQVTNVVLYSSDYYIKTVAAEEAQEKVPPNSSLTKTLTLVPLLANNRERRGIALDGKIKHEDTNLASSTIIKEGIDKTVMGILVSYQIKVKLTVSGLLGELTSSEVATEVPFRLMHPQPKDPDTAKESFQDENFVFEEFARQNLKDAGEYKEEKTDQEAAMDE
# How the values were obtained:
# [1] = target: SDM-Eno: enolase-1 with all seven corresponding charge-reversal mutations (bovine) (UniProt Q9XSJ4); assay: anti-arrestin-1 (C10C10) immunoprecipitation pulldown of AlexaFluor546-labeled enolase-1; 5 µM each
# Chain of SDM-Eno: enolase-1 with all seven corresponding charge-reversal mutations (bovine) (Q9XSJ4 whole entry, change not shown): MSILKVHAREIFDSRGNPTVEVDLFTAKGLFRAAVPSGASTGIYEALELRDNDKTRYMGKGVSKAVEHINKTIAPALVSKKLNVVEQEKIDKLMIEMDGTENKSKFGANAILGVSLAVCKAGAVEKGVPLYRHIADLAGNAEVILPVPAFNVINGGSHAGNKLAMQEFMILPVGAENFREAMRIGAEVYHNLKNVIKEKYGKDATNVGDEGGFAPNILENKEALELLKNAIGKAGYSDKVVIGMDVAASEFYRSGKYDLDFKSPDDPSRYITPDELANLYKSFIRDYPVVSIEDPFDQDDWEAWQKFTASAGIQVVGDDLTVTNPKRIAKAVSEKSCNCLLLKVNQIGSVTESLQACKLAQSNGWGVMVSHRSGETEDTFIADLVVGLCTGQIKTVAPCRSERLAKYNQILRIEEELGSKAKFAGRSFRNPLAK
# bovine enolase-1 [2] = target: T1, bovine enolase-1 (bovine, UniProt Q9XSJ4 1-434, AlexaFluor-546 maleimide on reactive cysteines (pulldown assay only; unlabeled in the quench and activity assays)); assay: as above
# T1 construct: also called Eno1; alpha-enolase
# T1 sequence (Q9XSJ4 whole entry): as the sequence (Q9XSJ4 whole entry, change not shown) above
# Experimental: E. Immunoprecipitation/Enolase Pulldown assay. The interaction between arrestin-1 and enolase-1 was assessed by using anti-arrestin-1 antibody to immunoprecipitate the arrestin-1-enolase-1 complex in which the enolase-1 was fluorescently labeled with AlexaFluor546. For this assay, 1.5 mg of Protein G-coated magnetic beads (DynaBeads, ThermoFisher), were coated with 10 μg of purified C10C10 anti-arrestin-1 monoclonal antibody (Donoso et al. (1990) S-antigen: preparation and characterization of site-specific monoclonal antibodies. Curr Eye Res 9, 343-355). Enolase-1 was labeled on its reactive cysteines with AlexaFluor-546 maleimide (ThermoFisher), reacting the enolase-1 with 100-fold molar excess of the fluorescent label. The fluorescently labeled enolase-1 was then sequentially dialyzed in LAP200^N buffer to remove any unreacted label. For the immunoprecipitation of the arrestin-1-enolase-1 complex, 5 μM arrestin-1 (or arrestin-1 variant) was mixed with 5 μM enolase-1-Alexa546 in LAP200^N in a 200 μL final volume for 2 h at 4° C., to which 10 μg of anti-arrestin-1 antibody on magnetic beads was subsequently added for 16 h with gentle rotation. The beads were magnetically captured, washed ten times with LAP200^N buffer, and then eluted with 0.1 M glycine (pH 2.5). After neutralizing the pH with 0.1 volume 1.5 M Tris base (pH 8.5), the fluorescence of the captured enolase-1-Alexa546 was measured, exciting fluorescence at 530 nm, and measuring average emission at 570-575 nm with a dual-detector fluorimeter (QM-1 steady state fluorescence spectrophotometer, Photon Technologies Inc).
# The charge-pair interactions identified in example 1 were selected to further investigate the modeled arrestin-1/enolase-1 interaction. Seven charged-pair interactions (Table 3 and FIG. 4A) were identified from the model as having the closest interactions. […] Following heterologous expression and purification, each arrestin-1 mutant was then assessed for its interaction with enolase-1, using an anti-arrestin-1 immunoprecipitation assay to pulldown fluorescently labelled enolase-1.
# bovine enolase-1 [3] = target: T1, bovine enolase-1; assay: KI quench protection of mBBr-labeled arrestin-1; 0.25 µM arrestin-1, 5 µM (20-fold) enolase-1
# Experimental: C. Quenching assay. Cysteine mutants of arrestin-1 were labeled with monobromobimane (mBBr, ThermoFisher), reacting the arrestin-1 protein with 100-fold molar excess of the fluorescent label for two hours at room temperature. The unreacted label was removed by dialyzing against three sequential changes of 500-volumes of LAP200 buffer. […] Fluorescence quenching of the mBBr fluorophore was performed using 0.25 μM mBBr-labeled arrestin-1 with 100 mM potassium iodide in the presence or absence of 5 μM bovine enolase-1 that had been heterologously expressed and purified as previously described for arrestin-1, monitoring fluorescence emission at 470 nm. To determine the degree to which enolase-1 shielded a residue from quenching by potassium iodide, a protection factor was calculated as follows: […]
# C. Mapping interaction of arrestin-1 with enolase-1. […] The fluorescence emission of the mBBr-labeled arrestin-1 with and without potassium iodide was measured to determine the range of quenching by KI. The fluorescence emission quench by KI with and without enolase-1 was then measured. A quench protection factor was calculated as described in the experimental procedures (Table 2). […] When mapped onto the surface of the arrestin-1 structure, these residues largely mapped to a single surface along the “bottom” of the arrestin protein (FIG. 2B).
# bovine enolase-1 [4] = target: T1, bovine enolase-1; assay: titration of enolase-1 (0-12.5 µM) on 0.25 µM H10C-mBBr, KI quench protection
# Text: FIGS. 1A-1B. Graph illustrating optimization of fluorescence quench and quench protection.
# B. Enolase concentration. The concentration of enolase-1 that could provide protection of mBBr fluorescence from quenching by the KI was then titrated. […] 90% quench protection was selected as the criterion value, which corresponded to a 20-fold molar excess of enolase-1 to arrestin-1.
molecule,measurement,setting,value
"bovine wild-type arrestin-1, N-terminally His(6)-tagged (from UniProt P08168 2-404)",decrease of pulldown compared to pulldown of wild-type enolase-1,[1],> 80%
B1,reduction of enolase-1 pulldown relative to wild-type arrestin-1,bovine enolase-1 [2],~25%
B2,reduction of enolase-1 pulldown relative to wild-type arrestin-1,bovine enolase-1 [2],~25%
B3,F(A+E+K) (fluorescence with enolase-1 and KI),bovine enolase-1 [3],10300
same,Pf (quench protection factor),bovine enolase-1 [3],0.792
same,quench protection at 20-fold molar excess of enolase-1,bovine enolase-1 [4],90%
B4,reduction of enolase-1 pulldown relative to wild-type arrestin-1,bovine enolase-1 [2],~25%
